Measured values: IntAct's records for PubMed 32296183

B1: Golgi SNAP receptor complex member 2 (Homo sapiens), O14653 (parent)
chain: MDPLFQQTHKQVHEIQSCMGRLETADKQSVHIVENEIQASIDQIFSRLERLEILSSKEPPNKRQNARLRVDQLKYDVQHLQTALRNFQHRRHAREQQERQREELLSRTFTTNDSDTTIPMDESLQFNSSLQKVHNGMDDLILDGHNILDGLRTQRLTLKGTQKKILDIANMLGLSNTVMRLIEKRAFQDKYFMIGGMLLTCVVMFLVVQYLT
partner: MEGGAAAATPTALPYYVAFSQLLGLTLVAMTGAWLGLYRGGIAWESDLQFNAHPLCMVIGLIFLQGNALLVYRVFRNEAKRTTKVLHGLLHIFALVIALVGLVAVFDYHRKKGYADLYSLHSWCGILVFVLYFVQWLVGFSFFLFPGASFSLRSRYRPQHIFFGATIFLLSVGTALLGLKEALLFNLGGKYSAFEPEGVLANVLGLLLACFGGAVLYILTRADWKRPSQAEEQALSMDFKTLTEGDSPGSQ
B2: Very-long-chain enoyl-CoA reductase (Homo sapiens), Q9NZ01 (parent)
chain: MKHYEVEILDAKTREKLCFLDKVEPHATIAEIKNLFTKTHPQWYPARQSLRLDPKGKSLKDEDVLQKLPVGTTATLYFRDLGAQISWVTVFLTEYAGPLFIYLLFYFRVPFIYGHKYDFTSSRHTVVHLACICHSFHYIKRLLETLFVHRFSHGTMPLRNIFKNCTYYWGFAAWMAYYINHPLYTPPTYGAQQVKLALAIFVICQLGNFSIHMALRDLRPAGSKTRKIPYPTKNPFTWLFLLVSCPNYTYEVGSWIGFAIMTQCLPVALFSLVGFTQMTIWAKGKHRSYLKEFRDYPPLRMPIIPFLL
partner: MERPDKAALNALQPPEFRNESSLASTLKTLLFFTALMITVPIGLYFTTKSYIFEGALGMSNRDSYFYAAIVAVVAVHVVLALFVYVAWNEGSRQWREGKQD
B3: Ceroid-lipofuscinosis neuronal protein 6 (Homo sapiens), Q9NWW5 (parent)
chain: MEATRRRQHLGATGGPGAQLGASFLQARHGSVSADEAARTAPFHLDLWFYFTLQNWVLDFGRPIAMLVFPLEWFPLNKPSVGDYFHMAYNVITPFLLLKLIERSPRTLPRSITYVSIIIFIMGASIHLVGDSVNHRLLFSGYQHHLSVRENPIIKNLKPETLIDSFELLYYYDEYLGHCMWYIPFFLILFMYFSGCFTASKAESLIPGPALLLVAPSGLYYWYLVTEGQIFILFIFTFFAMLALVLHQKRKRLFLDSNGLFLFSSFALTLLLVALWVAWLWNDPVLRKKYPGVIYVPEPWAFYTLHVSSRH
partner: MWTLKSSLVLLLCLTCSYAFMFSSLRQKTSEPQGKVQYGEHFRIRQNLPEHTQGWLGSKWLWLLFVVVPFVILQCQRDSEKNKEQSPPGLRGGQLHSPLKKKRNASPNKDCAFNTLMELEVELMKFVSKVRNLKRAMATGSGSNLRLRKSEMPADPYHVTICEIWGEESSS
B4: Ceroid-lipofuscinosis neuronal protein 6 (Homo sapiens), Q9NWW5 (parent)
chain: B3 chain
partner: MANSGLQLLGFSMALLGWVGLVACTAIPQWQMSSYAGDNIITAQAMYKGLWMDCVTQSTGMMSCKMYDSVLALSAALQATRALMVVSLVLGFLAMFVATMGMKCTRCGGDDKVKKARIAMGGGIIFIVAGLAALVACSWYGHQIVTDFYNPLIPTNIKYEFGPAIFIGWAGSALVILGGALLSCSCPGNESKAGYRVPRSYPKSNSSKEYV
B5: Very-long-chain enoyl-CoA reductase (Homo sapiens), Q9NZ01 (parent)
chain: B2 chain
partner: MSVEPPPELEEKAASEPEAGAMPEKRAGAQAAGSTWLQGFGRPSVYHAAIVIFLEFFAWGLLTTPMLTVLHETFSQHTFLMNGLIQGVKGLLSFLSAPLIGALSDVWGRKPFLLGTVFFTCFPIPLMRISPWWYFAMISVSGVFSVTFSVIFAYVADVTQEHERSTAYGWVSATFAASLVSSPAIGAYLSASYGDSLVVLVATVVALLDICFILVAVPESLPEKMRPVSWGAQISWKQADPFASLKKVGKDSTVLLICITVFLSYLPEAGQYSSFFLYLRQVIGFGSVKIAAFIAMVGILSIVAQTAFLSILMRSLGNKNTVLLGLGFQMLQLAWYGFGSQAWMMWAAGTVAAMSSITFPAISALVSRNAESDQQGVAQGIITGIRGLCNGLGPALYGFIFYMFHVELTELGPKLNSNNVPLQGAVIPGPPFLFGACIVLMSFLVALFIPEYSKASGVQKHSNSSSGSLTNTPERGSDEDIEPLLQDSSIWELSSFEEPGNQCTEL
B6: Golgi SNAP receptor complex member 2 (Homo sapiens), O14653 (parent)
chain: B1 chain
partner: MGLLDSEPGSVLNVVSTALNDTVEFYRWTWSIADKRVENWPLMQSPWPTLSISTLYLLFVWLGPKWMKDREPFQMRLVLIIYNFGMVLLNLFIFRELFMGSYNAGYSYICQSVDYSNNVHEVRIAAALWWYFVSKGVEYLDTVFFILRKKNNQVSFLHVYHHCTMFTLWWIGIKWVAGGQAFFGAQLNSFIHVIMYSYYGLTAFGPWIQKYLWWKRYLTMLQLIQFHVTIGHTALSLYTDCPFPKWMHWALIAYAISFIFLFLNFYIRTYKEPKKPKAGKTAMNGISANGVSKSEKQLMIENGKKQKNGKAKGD
B7: Ceroid-lipofuscinosis neuronal protein 6 (Homo sapiens), Q9NWW5 (parent)
chain: B3 chain
partner: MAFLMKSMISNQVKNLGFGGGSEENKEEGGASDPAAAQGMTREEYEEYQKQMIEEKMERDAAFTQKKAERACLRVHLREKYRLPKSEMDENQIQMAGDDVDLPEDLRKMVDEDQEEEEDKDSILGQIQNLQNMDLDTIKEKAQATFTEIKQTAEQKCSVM
B8: Very-long-chain enoyl-CoA reductase (Homo sapiens), Q9NZ01 (parent)
chain: B2 chain
partner: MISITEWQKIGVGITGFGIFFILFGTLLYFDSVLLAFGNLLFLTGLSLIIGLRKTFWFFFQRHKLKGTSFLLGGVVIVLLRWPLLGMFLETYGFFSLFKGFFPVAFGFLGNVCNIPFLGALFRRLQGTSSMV
B9: Succinate--CoA ligase [ADP-forming] subunit beta, mitochondrial (Homo sapiens), Q9P2R7 (parent)
chain: MAASMFYGRLVAVATLRNHRPRTAQRAAAQVLGSSGLFNNHGLQVQQQQQRNLSLHEYMSMELLQEAGVSVPKGYVAKSPDEAYAIAKKLGSKDVVIKAQVLAGGRGKGTFESGLKGGVKIVFSPEEAKAVSSQMIGKKLFTKQTGEKGRICNQVLVCERKYPRREYYFAITMERSFQGPVLIGSSHGGVNIEDVAAESPEAIIKEPIDIEEGIKKEQALQLAQKMGFPPNIVESAAENMVKLYSLFLKYDATMIEINPMVEDSDGAVLCMDAKINFDSNSAYRQKKIFDLQDWTQEDERDKDAAKANLNYIGLDGNIGCLVNGAGLAMATMDIIKLHGGTPANFLDVGGGATVHQVTEAFKLITSDKKVLAILVNIFGGIMRCDVIAQGIVMAVKDLEIKIPVVVRLQGTRVDDAKALIADSGLKILACDDLDEAARMVVKLSEIVTLAKQAHVDVKFQLPI
partner: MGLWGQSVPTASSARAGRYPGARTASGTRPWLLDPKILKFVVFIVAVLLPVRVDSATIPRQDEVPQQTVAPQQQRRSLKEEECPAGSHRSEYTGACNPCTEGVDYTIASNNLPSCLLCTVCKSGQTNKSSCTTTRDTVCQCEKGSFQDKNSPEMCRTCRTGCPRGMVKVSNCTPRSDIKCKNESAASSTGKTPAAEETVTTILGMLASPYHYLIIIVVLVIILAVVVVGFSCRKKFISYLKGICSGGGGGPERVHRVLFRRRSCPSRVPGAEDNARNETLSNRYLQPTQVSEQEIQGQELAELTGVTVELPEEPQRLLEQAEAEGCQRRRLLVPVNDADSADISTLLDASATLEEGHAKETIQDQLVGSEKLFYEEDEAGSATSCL
B10: Golgi SNAP receptor complex member 2 (Homo sapiens), O14653 (parent)
chain: B1 chain
partner: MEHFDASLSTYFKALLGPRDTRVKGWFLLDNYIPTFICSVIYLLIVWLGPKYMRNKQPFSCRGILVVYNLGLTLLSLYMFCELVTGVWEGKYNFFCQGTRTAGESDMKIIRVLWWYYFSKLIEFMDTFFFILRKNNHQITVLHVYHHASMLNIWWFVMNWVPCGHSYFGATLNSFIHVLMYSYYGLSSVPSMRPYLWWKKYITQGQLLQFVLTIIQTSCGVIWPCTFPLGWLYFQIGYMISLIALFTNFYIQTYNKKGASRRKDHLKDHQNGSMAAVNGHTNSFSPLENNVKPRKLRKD
B11: Ceroid-lipofuscinosis neuronal protein 6 (Homo sapiens), Q9NWW5 (parent)
chain: B3 chain
partner: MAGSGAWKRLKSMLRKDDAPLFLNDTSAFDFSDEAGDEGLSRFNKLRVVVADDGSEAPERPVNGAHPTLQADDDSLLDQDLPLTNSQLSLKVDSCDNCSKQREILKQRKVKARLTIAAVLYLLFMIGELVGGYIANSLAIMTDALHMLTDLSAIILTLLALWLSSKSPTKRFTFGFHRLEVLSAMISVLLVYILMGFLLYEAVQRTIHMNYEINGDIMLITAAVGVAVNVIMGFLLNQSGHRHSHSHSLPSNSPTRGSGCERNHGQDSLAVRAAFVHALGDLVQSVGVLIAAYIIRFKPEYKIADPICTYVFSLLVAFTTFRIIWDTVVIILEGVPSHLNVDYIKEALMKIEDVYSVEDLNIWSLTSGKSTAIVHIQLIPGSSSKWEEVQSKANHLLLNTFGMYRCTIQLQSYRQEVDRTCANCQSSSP
B12: Golgi SNAP receptor complex member 2 (Homo sapiens), O14653 (parent)
chain: B1 chain
partner: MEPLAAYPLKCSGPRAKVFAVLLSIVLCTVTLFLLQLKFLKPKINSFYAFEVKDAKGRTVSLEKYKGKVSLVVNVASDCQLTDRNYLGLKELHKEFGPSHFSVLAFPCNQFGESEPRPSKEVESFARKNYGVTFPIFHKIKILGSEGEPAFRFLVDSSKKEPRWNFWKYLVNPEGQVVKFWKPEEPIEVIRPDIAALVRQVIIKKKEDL

Variants of: B1
Conditions: with cy561_human CYB561, P49447

Row | effect of a mutation on the interaction | Variant
1 | with no effect | G144W

Variants of: B2
Conditions: with vma21_human VMA21, Q3ZAQ7

Row | effect of a mutation on the interaction | Variant
2 | disrupting interaction strength | P182L

Variants of: B3
Conditions: with FAM209A

Row | effect of a mutation on the interaction | Variant
3 | with no effect | G123D
4 | with no effect | L47F

Variants of: B4
Conditions: with cld7_human CLDN7, O95471

Row | effect of a mutation on the interaction | Variant
5 | with no effect | G123D
6 | disrupting interaction strength | R6T

Variants of: B5
Conditions: with mf14b_human MFSD14B

Row | effect of a mutation on the interaction | Variant
7 | disrupting interaction strength | P182L

Variants of: B6
Conditions: with elov4_human ELOVL4, Q9GZR5

Row | effect of a mutation on the interaction | Variant
8 | with no effect | G144W

Variants of: B7
Conditions: with cplx4_human CPLX4, Q7Z7G2

Row | effect of a mutation on the interaction | Variant
9 | with no effect | G123D
10 | with no effect | L47F
11 | with no effect | R6T

Variants of: B8
Conditions: with got1a_human GOLT1A

Row | effect of a mutation on the interaction | Variant
12 | with no effect | P182L

Variants of: B9
Conditions: with tr10d_human TNFRSF10D

Row | effect of a mutation on the interaction | Variant
13 | disrupting interaction strength | D251N
14 | disrupting interaction strength | G118R

Variants of: B10
Conditions: with elov5_human ELOVL5, Q9NYP7

Row | effect of a mutation on the interaction | Variant
15 | with no effect | G144W

Variants of: B11
Conditions: with znt4_human SLC30A4, O14863

Row | effect of a mutation on the interaction | Variant
16 | disrupting interaction strength | L47F
17 | disrupting interaction strength | G123D
18 | with no effect | R6T

Variants of: B12
Conditions: with gpx8_human GPX8, Q8TED1

Row | effect of a mutation on the interaction | Variant
19 | with no effect | G144W
